Data on three molecules can be found in patent US20150266963A1 (ARGEN X B V, published 2015).

Test [1] addresses T1, human-mouse CD70 chimera chim-2.2 (Flag-TNC-CD70).
T1 construct: also called chimera 2.2; not shown: N-terminal Flag tag, TNC trimerisation domain and any linkers of the Flag-TNC-CD70 construct
T1 chain: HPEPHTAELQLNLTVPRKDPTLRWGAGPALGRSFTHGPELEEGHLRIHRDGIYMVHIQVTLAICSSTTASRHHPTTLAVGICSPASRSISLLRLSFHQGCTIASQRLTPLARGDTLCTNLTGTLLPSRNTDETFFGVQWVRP
Put plainly: ELISA; chimera captured by anti-Flag mAb; anti-human-Fc-HRP. The method, then:
(§1) A Maxisorb (Nunc) microtiter plate was coated with 3.5 μg/ml mouse M2 anti-Flag mAb (Sigma Aldrich, F3165) and the different chimeras were captured. A dilution series of the CD70 mAbs to be tested was applied starting at a concentration of 10 μg/ml and making 3-fold dilutions. After 2 hours, binding was detected using anti-human-Fc-HRP at a 16000-fold dilution. Staining was done with ABTS and OD at 405 nm was measured. As a positive control, CD27-Fc was applied which is able to bind to both human and mouse CD70 with good affinity as well as to the chimeric human-mouse CD70 variants.

In test [2] the target is T2, human-mouse CD70 chimera chim-2.4 (Flag-TNC-CD70).
T2 construct: also called chimera 2.4
T2 chain: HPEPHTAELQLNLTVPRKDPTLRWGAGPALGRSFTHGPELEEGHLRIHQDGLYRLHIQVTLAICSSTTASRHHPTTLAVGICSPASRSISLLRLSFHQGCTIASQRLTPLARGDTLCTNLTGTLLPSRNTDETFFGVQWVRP
Described as above. The method, then: as §1

For test [3], the target named is T3, human-mouse CD70 chimera chim-2 (Flag-TNC-CD70).
T3 construct: also called chimera 2
T3 chain: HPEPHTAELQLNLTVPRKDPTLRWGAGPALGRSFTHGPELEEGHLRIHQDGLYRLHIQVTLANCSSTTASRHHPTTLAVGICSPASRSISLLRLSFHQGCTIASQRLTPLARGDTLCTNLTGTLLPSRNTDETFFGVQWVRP
Described as above. The method, then:
as §1

The target in test [4] is T4, human-mouse CD70 chimera chim-3 (Flag-TNC-CD70).
T4 construct: also called chimera 3
T4 chain: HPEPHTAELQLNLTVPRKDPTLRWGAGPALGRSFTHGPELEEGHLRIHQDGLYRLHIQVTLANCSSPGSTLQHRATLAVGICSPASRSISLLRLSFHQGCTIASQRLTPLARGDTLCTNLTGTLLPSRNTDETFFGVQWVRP
Described as above. The method, then:
as §1

Test [5] deals with T5, human-mouse CD70 chimera chim-4 (Flag-TNC-CD70) (Mus musculus (Mouse), UniProt O55237 54-192).
T5 construct: also called chimera 4
T5 chain: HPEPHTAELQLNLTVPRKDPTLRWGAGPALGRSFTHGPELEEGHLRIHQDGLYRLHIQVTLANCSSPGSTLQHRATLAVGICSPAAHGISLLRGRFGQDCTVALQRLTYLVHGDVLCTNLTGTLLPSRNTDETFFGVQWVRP
Described as above. The method, then: as §1

The target in test [6] is T6, human-mouse CD70 chimera chim-1 (Flag-TNC-CD70) (Homo sapiens (Human), UniProt P32970 58-193, Soluble homotrimer held by the TNC domain; one CD70 ECD chain is given.).
T6 construct: also called chimera 1; not shown: N-terminal Flag tag, TNC (tenascin-C) trimerisation domain and any linkers of the Flag-TNC-CD70 construct
T6 chain: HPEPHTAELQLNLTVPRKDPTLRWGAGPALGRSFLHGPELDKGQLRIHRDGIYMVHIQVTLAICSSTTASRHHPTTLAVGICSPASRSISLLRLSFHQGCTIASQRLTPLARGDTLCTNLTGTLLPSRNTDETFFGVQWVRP
Described as above. The method, then:
as §1

The target in test [7] is T7, human-mouse CD70 chimera chim-2.1 (Flag-TNC-CD70) (Soluble homotrimer held by the TNC domain; one CD70 ECD chain is given.).
T7 construct: also called chimera 2.1; not shown: N-terminal Flag tag, TNC (tenascin-C) trimerisation domain and any linkers of the Flag-TNC-CD70 construct
T7 chain: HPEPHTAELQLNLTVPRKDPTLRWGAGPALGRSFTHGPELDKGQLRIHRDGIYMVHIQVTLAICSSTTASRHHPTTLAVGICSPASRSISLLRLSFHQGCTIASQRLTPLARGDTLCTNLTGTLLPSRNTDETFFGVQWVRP
Described as above. The method, then:
as §1

Test [8] concerns the target T8, recombinant human CD70 (Flag-TNC-CD70) (human, UniProt P32970 39-193).
T8 construct: extracellular domain; Captured by anti-Flag mAb in ELISA; as 'recombinant human CD70' immobilised on Biacore CM5 chips; TNC is for trimerisation; also called recombinant CD70; human recombinant CD70; not shown: Flag tag and TNC trimerisation domain
T8 sequence (looked up): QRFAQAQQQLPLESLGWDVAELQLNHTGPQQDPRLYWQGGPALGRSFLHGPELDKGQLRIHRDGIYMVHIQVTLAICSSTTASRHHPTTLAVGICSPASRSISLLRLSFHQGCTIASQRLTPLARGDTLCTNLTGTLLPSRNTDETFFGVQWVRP
In words: ELISA; Flag-TNC-CD70 captured by anti-Flag mAb; anti-human-Fc-HRP. The method, then: as §1

Another test has as its target T9, mouse Flag-TNC-CD70 (mouse, UniProt O55237 45-195).
T9 construct: extracellular domain; also called mouse CD70; not shown: Flag tag and TNC trimerisation domain
T9 sequence (looked up): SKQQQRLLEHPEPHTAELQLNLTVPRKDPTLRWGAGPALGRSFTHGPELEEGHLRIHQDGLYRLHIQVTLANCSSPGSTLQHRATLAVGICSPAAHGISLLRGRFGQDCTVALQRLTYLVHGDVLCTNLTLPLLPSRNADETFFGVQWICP
In words: ELISA; mouse Flag-TNC-CD70 captured by anti-Flag mAb; anti-human-Fc-HRP. The method, then:
as §1

The target of test [9] is T8, recombinant human CD70 (Flag-TNC-CD70). Put plainly: Biacore; recombinant human CD70 on CM5 chip; Fab from papain digestion. The method, then:
Recombinant human CD70 was immobilized on a CM5 Biacore chip. The immobilization was performed in accordance with a method provided by Biacore and by using the NHS/EDC kit (Biacore AB): after activation of the chip, a solution of 50 μg/ml of recombinant CD70 in 10 mM acetate buffer with pH of 5 was prepared and 1 μl of this solution (50ng) was injected resulting in a surface density of approximately 1000 RU.
Fabs were prepared for the CD70 mAbs ARGX-110, MDX1411 and SGN70 by papain digestion. These Fabs, at a concentration of approximately 100-400 μg/ml, were diluted 6-fold in HEPES-buffered saline (0.1M HEPES, 1.5M NaCl, 30 mM EDTA, 0.5% v/v surfactant P20). They were injected (30 μl) and passed through the flow cells at a flow rate of 30 μl/min. After binding of the Fab to CD70, the off-rate was monitored for a period of 10 minutes. After dissociation, the flow cell surfaces were regenerated by injecting 5 μl of 10 mM NaOH. Sometimes multiple injections of NaOH were needed to regenerate the surfaces depending on the affinity of the Fabs. Off-rate analysis was done by applying the BIAevaluation software. First, the sensogram of the blank runs were subtracted from those obtained with the coated flow cell.

The target in test [10] is T10, human CD70 expressed on the surface of cells (human, UniProt P32970 1-193).
T10 sequence (looked up): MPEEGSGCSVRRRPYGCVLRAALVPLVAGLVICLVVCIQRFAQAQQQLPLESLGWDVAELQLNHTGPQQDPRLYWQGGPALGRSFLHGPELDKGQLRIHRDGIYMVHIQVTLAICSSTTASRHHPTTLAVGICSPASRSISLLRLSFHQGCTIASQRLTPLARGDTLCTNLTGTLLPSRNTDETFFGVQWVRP
In words: cell-based or functional assay.

For test [11], the target named is T10, human CD70 expressed on the surface of …. Put plainly: flow cytometry on MHH-PREB-1 cells; anti-human IgG-FITC. The method, then:
In a further experiment, NHL-derived MHH-PREB-1 cells (1W cells) were incubated with a concentration gradient of chimeric llama-human CD70 inhibiting mAbs (20 μg/ml-0.25 ng/ml) and binding of the mAbs to the cells was detected using anti-human IgG-FITC antibody.

Test [12] has as its target T11, rhesus recombinant CD70 (FLAG-TNC-rhesus CD70) (rhesus).
T11 construct: also called rhesus Flag-TNC-CD70
Put plainly: inhibition ELISA; FLAG-TNC-rhesus CD70; competitor CD27-Fc. An excerpt:
In this assay, Flag-TNC-CD70 is captured by an anti-Flag mAb and binding of CD27-Fc is detected via a biotinylated anti-CD27 mAb and strep-HRP in the absence or presence of CD70 Fabs (FIGS. 2 and 3) or CD70 mAbs (FIG. 4). In FIG. 2B it can be seen that 27B3, which has an identical VH as 9D1, but contains a somewhat different light chain, seems to block binding of CD27 to CD70 more efficiently, which was in line with the better off rate of this Fab as measured on Biacore (data not shown). Table 3 indicates the blocking potency (expressed as IC50) for the various llama-human chimeric mAbs tested in the CD70 inhibition ELISA. […] FIG. 3 is a composite of an experiment testing llama CD70 Fabs for blocking activity (in the inhibition ELISA, see white bars) and for CD70 binding (binding ELISA, black bars). For the binding ELISA, Flag-TNC-CD70 is captured by an anti-Flag mAb and binding of the Fabs is detected using an anti-myc-HRP mAb, which recognizes the MYC tag fused to the C-terminus of the Fd fragment. For comparison purposes, known monoclonal antibodies to CD70 (SGN70 described in US 2010/0129362 A1, clone 1F6; and MDX69A7 described in WO2008/074004 FIGS. 5A and 5B) were tested in parallel. […] Of interest is clone 59D10, which as Fab has no blocking activity, but when converted into a chimeric IgG was antagonistic (see Table 3). […]

Test [13] has as its target T8, recombinant human CD70 (Flag-TNC-CD70). In words: inhibition ELISA; Flag-TNC-CD70 captured by anti-Flag mAb; competitor CD27-Fc. In short, it runs like this:
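Flag-TNC-CD70 captured by anti-Flag mAb, then incubated with CD27-Fc with or without titrated Fabs (periplasmic extracts) or chimeric mAbs. Bound CD27-Fc detected via biotinylated anti-CD27 mAb and strep-HRP, and blocking potency expressed as IC50.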

B1: recombinant human CD27 Fc chimera (CD27-Fc) (Fc fusion, UniProt P26842 21-192, looked up)
chain: TPAPKSCPERHYWAQGKLCCQMCEPGTFLVKDCDQHRKAAQCDPCIPGVSFSPDHHTRPHCESCRHCNSGLLVRNCTITANAECACRNGWQCRDKECTECDPLPNPSLTARSSQALSPHPQPTHLPYVSEMLEARTAGHMQTLADFRQLPARTLSTHWPPQRSLCSSDFIRI
notes: Bought reagent; also called recombinant CD27-Fc; Fc part of the bought chimera not given
As for B1, the concentration giving a half-maximal response (EC50) was 0.056 µg/mL in test [1]; 0.076 µg/mL in [2]; 0.099 µg/mL in test [3]; 0.094 µg/mL in test [4]; 0.051 µg/mL in [5]; 0.159 µg/mL in [6]. In addition, the concentration giving a half-maximal response (EC50) in test [7] is 0.051 µg/mL; in test [8] it was 0.079 µg/mL; with mouse Flag-TNC-CD70 it was 0.041 µg/mL.

B2: ARGX-110 Fab (Fab, V domains shown)
VH: EVQLVESGGGLVQPGGSLRLSCAASGFTFSVYYMNWVRQAPGKGLEWVSDINNEGGTTYYADSVKGRFTISRDNSKNSLYLQMNSLRAEDTAVYYCARDAGYSNHVPIFDSWGQGTLVTVSS
VL: QAVVTQEPSLTVSPGGTVTLTCGLKSGSVTSDNFPTWYQQTPGQAPRLLIYNTNTRHSGVPDRFSGSILGNKAALTITGAQADDEAEYFCALFISNPSVEFGGGTQLTVLG
For the molecule B2, the koff in test [9] came out at 0.00014 s⁻¹.

B3: 57B6 chimeric llama-human mAb (antibody, human IgG1, V domains shown)
VH: QLQLVESGGGLVQPGGSLRLSCAASGFSFSHYAMSWVRQAPGKGLEWVSGDNTYDGGTRYQDSVKGRFTISRDNGKNTLYLQMNSLKPEDTAVYYCAKDTGRGIMGEYGMDYWGKGTLVTVSS
VL: QTVVTQEPSLSVSPGGTVTLTCGLKSGSVTSSNYPAWYQQTPGQAPRLLIYNTNSRHSGVPSRFSGSISGNKAALTITGAQPEDEADYYCALYMGSGSANAMFGGGTHLTVLG
Regarding B3, the “IC50 (ng/ml), IL-8 secretion in Raji / HT1080-CD27 co-culture assay” value in test [10] stood at 5 ng/mL. In addition, it took 0.083 µg/mL to reach a half-maximal effect in [11] (EC50). Besides, the IC50 in test [12] came to 0.135 µg/mL; in test [13] it was 0.154 µg/mL.
